Assay [1] addresses V5-tagged HNF4α (hepatocyte nuclear factor 4alpha), full length (amino acids 1–474), P41235-1. The assay can be described thus: Co-IP (IP-Flag) and Western blotting, V5 band quantified. To be noted: HEK293T cells, transfected for 48 h; parent: 1. (In general: A western blot detects proteins with antibodies after separation by electrophoresis.)
The target in assay [2] is Flag-tagged TRIM47 (tripartite motif 47), full length (amino acids 1–638), Q96LD4-1. The assay is described as above. To be noted: HEK293T cells, co-transfected for 48 h; parent: 1.
Chain of Flag-tagged TRIM47 (tripartite motif 47), full length (amino acids 1–638), Q96LD4-1 (Q96LD4 whole entry, the tested form may be a part): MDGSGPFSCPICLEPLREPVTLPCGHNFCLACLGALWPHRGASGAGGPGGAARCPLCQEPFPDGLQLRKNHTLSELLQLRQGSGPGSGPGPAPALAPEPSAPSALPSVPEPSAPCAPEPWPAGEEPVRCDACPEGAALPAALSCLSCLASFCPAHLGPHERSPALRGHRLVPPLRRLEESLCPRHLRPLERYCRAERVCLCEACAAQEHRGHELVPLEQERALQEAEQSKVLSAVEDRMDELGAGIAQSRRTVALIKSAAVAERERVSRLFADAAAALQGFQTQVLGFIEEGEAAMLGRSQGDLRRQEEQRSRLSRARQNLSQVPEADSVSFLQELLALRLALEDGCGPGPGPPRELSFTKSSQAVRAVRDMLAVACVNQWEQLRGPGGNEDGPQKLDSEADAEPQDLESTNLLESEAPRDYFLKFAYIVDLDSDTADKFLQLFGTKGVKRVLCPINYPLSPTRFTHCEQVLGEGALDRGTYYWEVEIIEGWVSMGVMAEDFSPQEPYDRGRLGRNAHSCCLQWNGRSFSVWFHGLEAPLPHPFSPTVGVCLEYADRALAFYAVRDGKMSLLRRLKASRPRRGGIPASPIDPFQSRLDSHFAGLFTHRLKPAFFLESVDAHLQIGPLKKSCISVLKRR

Consider “Flag-tagged TRIM47 (tripartite motif 47), full length (amino acids 1–638) (from UniProt Q96LD4-1) K534A”, for which, in assay [1], the ratio to parent came out at 0.79 Fold.
Regarding “Flag-tagged TRIM47 (tripartite motif 47), full length (amino acids 1–638) (from UniProt Q96LD4-1) K534A; K600A”, in assay [1], the ratio to parent amounted to 0.49 Fold.
Still for that read-out and setting: under “Flag-tagged TRIM47 (tripartite motif 47), full length (amino acids 1–638) (from UniProt Q96LD4-1) K600A” stands 0.83 Fold.
With “V5-tagged HNF4α (hepatocyte nuclear factor 4alpha), full length (amino acids 1–474) (from UniProt P41235-1) E353A”, the ratio to parent in assay [2] was 0.38 Fold.
Same read-out and setting: under “V5-tagged HNF4α (hepatocyte nuclear factor 4alpha), full length (amino acids 1–474) (from UniProt P41235-1) K342A” stands 0.56 Fold; under “V5-tagged HNF4α (hepatocyte nuclear factor 4alpha), full length (amino acids 1–474) (from UniProt P41235-1) K342A; W349A; E353A”, 0.23 Fold; under “V5-tagged HNF4α (hepatocyte nuclear factor 4alpha), full length (amino acids 1–474) (from UniProt P41235-1) W349A”, 0.49 Fold.
